How the values were obtained:
Test in all cases: pull-down binding Z-score (relative to library population); higher = stronger binding
[1] = tested on: G-clamp-N3 (biotin conjugate); details: RNA library: Library-1 (pre-miRNA loops + repeats)
Outline: (§1)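 An RNA library (1 μg) carrying a Cy5 or Cy3 end label was heat-folded in phosphate/NaCl/KCl buffer, then incubated for 60 min at 25 °C with streptavidin beads loaded with 100 pmol of biotin-conjugated small molecule. The beads were washed three times, and bound RNA was released in hot SDS and hybridised to a DNA barcode microarray for 20 h at 55.5 °C. Each binding score was derived by subtracting the signal from beads without compound, averaging the barcoded replicate probes after removing the highest and lowest, and expressing the result as a Z-score relative to the library mean and standard deviation.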

[2] = tested on: TO-3-N3 (biotin conjugate); details: RNA library: Library-2
Outline: as §1

[3] = tested on: TO-3-N3-2 (biotin conjugate); details: RNA library: Library-2
Outline: as §1

TO-N3 (biotin conjugate) = details: RNA library: Library-2
Outline: as §1

[4] = tested on: TO-N3-2 (biotin conjugate); details: RNA library: Library-2
Outline: as §1

Sequence	pull-down binding Z-score [1]	pull-down binding Z-score [2]	pull-down binding Z-score [3]	pull-down binding Z-score (TO-N3 (biotin conjugate))	pull-down binding Z-score [4]
GCUUCUCUUUCUCACCAGCAGC [hsa-mir-4467]	-1.87	-0.543	0.152	-0.461	-0.0165
GCUUCUGCGUUAUCUGGAAGG [hsa-mir-4706]	-0.078	-0.466	-0.131	-0.25	0.26
GCUUCUGCUGCAUGAUCUCCGAGUCCCUGGGGGUAGAGAUGAUGGGGCACUGGGAGGU [hsa-mir-1282]	0.676	0.113	0.312	0.59	0.851
GCUUGCUGUACAUAACUCAAUAGCCGGAAGC [hsa-mir-129-2]	-0.369	-0.0763	-0.316	-0.0532	0.327
GCUUGCUGUUCCUCUCAACAGUAGUCAGGAAGC [hsa-mir-129-1]	-0.381	-0.169	-0.186	-0.219	-0.245
GCUUGGAGCCUUGGUAGGGAAGCAAGCUGAGGAGAUAGGA [hsa-mir-7154]	1.23	1.22	0.627	1.57	1.92
GCUUUAUGUCCUGACCCAGCUAAAGC [hsa-mir-22]	-0.155	0.3	-0.246	0.112	-0.0465
GCUUUCUGUGGUCAGAAAGAAAAGCAAGU [hsa-mir-520f]	1.15	0.636	0.704	0.758	0.76
GCUUUUCACCUGUGAUCCCAGGAGAGGAAGC [hsa-mir-646]	-0.741	-0.299	-0.0622	-0.0302	0.422
GGAAACUGAGACUUUGUAACUAUGUCUCAGUCUCA [hsa-mir-452]	-0.74	-0.179	-0.296	-0.297	-0.427
GGAAAGGGGAUGCAGAGCCCUGCC [hsa-mir-4647]	1.97	1.28	0.526	1.44	1.52
GGAACACUAUAUUAAUCAGGUUUCC [hsa-mir-6509]	-0.0674	-0.609	-0.256	-0.631	-0.706
GGAAGAAGGCUGAGGGAGAUGCCUUCUUCC [hsa-mir-6512]	0.436	-0.455	-0.106	-0.155	1.02
GGAAGACACAUGAGCAGUGCCUCCACUUCACGCCUCUCCC [hsa-mir-6780b]	-1.13	0.265	0.0363	0.543	0.746
GGAAGGGAGCCCCAUUUACAGUGGUAACUUCCUUUCC [hsa-mir-5006]	-0.388	1.35	0.679	1.3	0.181
GGAAGGGCGCCUGUGCUUCGUCC [hsa-mir-572]	0.21	0.31	-0.215	0.52	0.767
GGAAUAGUGCUCCUGGUUGUUUC [hsa-mir-1180]	0.894	-0.548	-0.353	-0.303	0.243
GGAAUCCUACGUGAGGGACAAUCAUUCAGACCCACGUAGCAGUGUUCU [hsa-mir-1299]	0.0519	0.353	0.392	0.632	0.496

Sequence	pull-down binding Z-score [1]	pull-down binding Z-score [2]	pull-down binding Z-score [3]	pull-down binding Z-score (TO-N3 (biotin conjugate))	pull-down binding Z-score [4]
GGACAGGGAUUCUUUUCACUGUU [hsa-mir-599]	1.08	-0.0902	0.0302	0.141	0.0602
GGACAUCCUUCCAUAGUAAAUAAGCGGUGCC [hsa-mir-8064]	-0.584	-0.38	0.131	-0.0974	0.218
GGACCCUCUCUCUACCUCU [hsa-mir-4315-1_4315-2]	-0.489	-0.211	-0.12	-0.188	0.0855
GGACGUCACCACCAUGGCC [hsa-mir-650]	-1.19	0.0495	0.247	0.232	0.358
GGACUCAGCCCUGUGCUGAGCCC [hsa-mir-5587]	-0.0279	0.722	-0.313	0.532	-0.961
GGACUUGCGGUUCA [hsa-mir-8057]	-1.11	-0.0023	-0.281	-0.0278	0.109
GGAGAAGACUUUUCCUUUCCUCC [hsa-mir-4660]	-0.415	-0.1	-0.212	-0.139	-0.545
GGAGACACUUUCACUAUAUAUAGUGGCUCC [hsa-mir-3156-2]	-0.175	-0.948	-0.571	-1.34	-1.03
GGAGACACUUUUACUAUAUAUAGUGGCUCC [hsa-mir-3156-1]	-0.0968	-1.09	-0.555	-1.5	-1.51
GGAGACCCUAUACAUACCUGUUUCC [hsa-mir-5581]	-2.1	-0.408	-0.187	-0.37	-0.354
GGAGACGGGUCUUUCUC [hsa-mir-1208]	-1.52	0.816	0.466	1.04	0.758
GGAGAGGAUCCACCUGUCCUGUCC [hsa-mir-6165]	0.202	0.416	-0.113	0.374	0.393
GGAGAGUAUGGUCACAGCAGCAUCCUCC [hsa-mir-6780a]	0.186	-0.0714	-0.326	-0.0981	0.36
GGAGAUCGUACC [hsa-mir-4430]	-0.504	-0.109	-0.372	-0.107	-0.15
GGAGAUUGGAGUGGCCAGUGUUCCUAAACAAUUC [hsa-mir-4263]	-0.451	0.0793	0.226	0.387	0.663
GGAGCAGACAGACCCAACCUCAUGCUCC [hsa-mir-6763]	-0.993	0.0429	-0.471	0.219	0.247
GGAGCCCGAGCAGCCGCGGUGAA [hsa-mir-7706]	-1.54	1.29	0.551	2.17	2.55
GGAGCCUUCCCCAGAGGAGUCAGGCC [hsa-mir-4312]	0.386	0.273	-0.0198	0.698	1.41

Reference: the supplement of paper PMC11865577
